Results reported in patent US10076576B2, “Minimally toxic prodrugs” (priority 2012, dated 2018).
Several values for one entry are separate records, joined by “and”; a condition that tells them apart may be missing. Identical values can stand only once.

Experiments:
[1] = system: LoVo colon carcinoma xenografts; assay: Activation at the tumor site after single iv bolus, LoVo xenograft; format: in vivo, NMRI nude mice; settings: 24 hours after single iv injection, 15-620 μmol/kg
Protocol: FIG. 6. PhAc-ALGP-Dox was administered at increasing concentrations (15, 35, 50, 100, 200, 300, 460, 620 μmol/kg) by intravenous injection to NMRI nude mice bearing LoVo colon carcinoma xenografts (3 mice per group). After 24 hours, mice were sacrificed and tumors were collected. Doxorubicin tumor concentration was determined after extraction by HPLC analysis. Results represent the average Doxorubicin tumor concentration (pmol/mg protein)±SD.
Drugs or controls were administered four weeks after subcutaneous implantation of the xenograft. […] The PhAc-ALGP-Dox conjugate was dissolved in saline at increasing doses (1.5, 3.5, 5, 10, 20, 30, 46, and 62 mM). […] Twenty-four hours after injection, mice were sacrificed by cervical dislocation and tumors were collected, rinsed in phosphate buffer saline and homogenized. An extraction of drugs from tumor homogenates was performed with acetonitrile and Doxorubicin present in tumors was quantified by HPLC analysis.

[2] = In vitro cytotoxicity on control fibroblasts (neutral red uptake); format: cell-based, mouse; settings: mouse, inactivated mouse embryonic fibroblasts (MEF), 20 μg/ml
Protocol: FIG. 5. In vitro cellular toxicity of PhAc-ALGP-Dox and Doxorubicin on Cor.At® cells (mouse embryonic stem cell derived cardiomyocytes). As non-specific control, the test was also performed on inactivated mouse embryonic fibroblasts (MEF). Cells were cultured for 48 h in the presence of drugs and a neutral red uptake test was performed to determine cell viability. Results represent the cytotoxicity curves. The IC50 values were calculated from the cytotoxicity curves using the Prism GraphPad software 5.0.
The in vitro cardiotoxicity test was carried out in a relevant and predictive in vitro model for cardiac safety screening in early lead optimization using mouse embryonic stem cell derived cardiomyocytes (Cor.At®, Axiogenesis (Germany)). Cor.At® cardiomyocytes provide a standardized, homogenous and reproducible cell system for the in vitro classification of a compound's cardio-cytotoxic potential. After incubation with test compounds, the neutral red uptake test was used to determine effects which directly affect the viability and integrity of cardiac cells when compared to a non-specific reference cell type, e.g. mouse fibroblasts (MEF).

[3] = biological target: T1, CD10 (recombinant human neprilysin) (Homo sapiens, UniProt P08473); assay: Reactivation assay with purified CD10; format: biochemical; settings: 3 h at 37° C., 50 μM compound
T1 construct: purchased R&D systems 1182-ZN
T1 sequence (P08473 52-750 limits assumed): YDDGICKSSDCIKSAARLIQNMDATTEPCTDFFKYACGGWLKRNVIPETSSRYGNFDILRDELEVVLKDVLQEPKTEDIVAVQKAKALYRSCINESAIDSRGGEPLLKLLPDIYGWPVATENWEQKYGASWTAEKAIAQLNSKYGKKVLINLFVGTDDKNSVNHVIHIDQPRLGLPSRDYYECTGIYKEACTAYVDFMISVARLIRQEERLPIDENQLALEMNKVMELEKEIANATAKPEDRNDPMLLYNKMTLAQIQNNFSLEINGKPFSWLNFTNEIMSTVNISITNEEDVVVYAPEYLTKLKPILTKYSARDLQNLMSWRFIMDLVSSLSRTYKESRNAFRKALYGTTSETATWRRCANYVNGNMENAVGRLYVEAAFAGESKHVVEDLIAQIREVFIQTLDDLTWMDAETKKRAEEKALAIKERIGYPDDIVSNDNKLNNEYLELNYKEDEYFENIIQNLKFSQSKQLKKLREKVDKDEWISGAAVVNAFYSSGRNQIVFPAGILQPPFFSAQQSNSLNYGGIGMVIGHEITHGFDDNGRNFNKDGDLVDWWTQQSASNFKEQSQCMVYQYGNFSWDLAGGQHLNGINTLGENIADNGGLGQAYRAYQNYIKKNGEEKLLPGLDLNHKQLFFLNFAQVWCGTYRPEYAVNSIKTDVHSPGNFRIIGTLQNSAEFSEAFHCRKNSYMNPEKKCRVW

[4] = format: in vivo, CD1 mice
Source text: FIG. 13. Evaluation of chronic cardiotoxicity of PhAc-ALGP-Dox in CD-1 mice. Animals received 10 intravenous injections (arrows) of saline (●); Doxorubicin 6.9 μmol/kg (▪) or of PhAc-ALGP-Dox at 13.8 (▴), 27.6 (×), 55.2 (*) and 82.8 μmol/kg (◯). Results represent the evolution of the average relative body weight (%). †=dead mouse.
Chronic cardiac toxicity of PhAc-ALGP-Dox in mice was morphologically evaluated as previously described by Bertazzoli et al. 1979 (Cancer Treat Rep 63, 1877-1883). CD1 female white mice were treated by bolus intravenous injection in the tail vein at 10 μL/g (6 mice per group). Compounds were injected twice a week, ten times. Animals were not treated for 2 weeks between the first four injections and the last six injections to allow recovery of the bone marrow depression. The treatment dose-levels of PhAc-ALGP-Dox were: 13.8; 27.6; 55.2; and 82.8 μmol/kg. Doxorubicin 6.9 μmol/kg was used as a reference. Three weeks after the last injection, animals were deeply anaesthetized by intraperitoneal injection of nembutal (50 mg/kg) and exsanguinated. The hearts were carefully collected, rinsed in NaCl 9°/oo and fixed in a 10% formaldehyde solution. Samples were processed for histopathological analysis (CITox Lab, France). The heart was trimmed, embedded in paraffin wax, sectioned at a thickness of 4 microns and stained with hematoxylin-eosin before microscopic evaluation. During the course of the experiment, body weight was controlled before each injection or once a week.

[5] = biological target: T2, TOP (recombinant human thimet oligopeptidase) (Homo sapiens, UniProt P52888); assay: Reactivation assay with purified TOP; format: biochemical; settings: 3 h at 37° C., 50 μM compound
T2 construct: purchased R&D systems 3439-ZN
T2 sequence (P52888 whole entry): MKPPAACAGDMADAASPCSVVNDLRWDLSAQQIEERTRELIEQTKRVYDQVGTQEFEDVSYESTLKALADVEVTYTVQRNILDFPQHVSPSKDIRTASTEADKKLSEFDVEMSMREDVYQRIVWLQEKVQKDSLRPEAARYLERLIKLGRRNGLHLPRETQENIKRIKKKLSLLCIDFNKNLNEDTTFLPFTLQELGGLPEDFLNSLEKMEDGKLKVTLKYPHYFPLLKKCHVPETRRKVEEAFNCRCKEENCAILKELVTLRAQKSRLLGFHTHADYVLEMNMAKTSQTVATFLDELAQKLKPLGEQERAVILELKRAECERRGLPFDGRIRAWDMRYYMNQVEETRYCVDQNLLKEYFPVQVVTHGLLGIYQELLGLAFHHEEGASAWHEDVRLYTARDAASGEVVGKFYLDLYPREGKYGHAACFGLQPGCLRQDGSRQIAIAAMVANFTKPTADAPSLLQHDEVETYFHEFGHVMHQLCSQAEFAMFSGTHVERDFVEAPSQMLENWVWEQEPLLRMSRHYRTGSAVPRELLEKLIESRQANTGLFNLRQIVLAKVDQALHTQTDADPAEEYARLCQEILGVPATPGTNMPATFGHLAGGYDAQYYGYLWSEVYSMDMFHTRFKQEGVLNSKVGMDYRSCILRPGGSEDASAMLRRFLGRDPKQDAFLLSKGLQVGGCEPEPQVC
Protocol: TOP (recombinant human thimet oligopeptidase, R&D systems, Ref 3439-ZN) was diluted at 10 nM in a solution of 50 mM Tris-HCl pH 7.4/0.5M NaCl/0.1M DTT. CD26 and FAP were diluted at 1 μg/mL in a Tris-HCl pH 7.5 buffer. Reactions were initiated by addition of 50 μM of each compound to enzymes solutions (1 V enzyme solution+1 V 100 μM drug solution). Samples were incubated for 0, 1, or 3 hours at 37° C. in a water bath in the presence of purified enzymes. Fifty μL of sample were collected at each time point and processed as described above for human plasma. Activation of Suc-βALAL-dox was tested in parallel as a reference.

[6] = system: LS-174T tumor cell secreted peptidases; assay: Reactivation assay in LS174T tumor cell conditioned medium; format: biochemical, human; settings: 5 h at 37° C.
Protocol: Sub-confluent cultures of LS-174T tumor cells were washed twice with a saline phosphate buffer solution, and fresh culture medium (DMEM-F12 without phenol red) containing 0.02% bovine serum albumin is added (100 μl/cm^2). After 24 hours incubation, the conditioned medium is collected, centrifuged for 10 minutes at 300 g, buffered with 1 M Tris-HCl, pH 7.4 (1 volume of buffer+19 volumes of medium) and concentrated 20 times by […] (cutoff threshold of 10 kDa).
Drug compounds (50 μM) were incubated for 0, 1, 3 or 5 hours at 37° C. in the presence of freshly prepared LS174T tumor cell conditioned medium. Fifty μL of sample were collected at each time point and processed as described above for human plasma.

[7] = 13.8-82.8 μmol/kg, 10 iv injections

COc1cccc2c1C(=O)c1c(O)c3c(c(O)c1C2=O)CC(O)(C(=O)CO)CC3OC1CC(NC(=O)C2CCCN2C(=O)CNC(=O)C(CC(C)C)NC(=O)C(C)NC(=O)CP(=O)(O)O)C(O)C(C)O1 (centres unmarked) [PhAc-ALGP-Dox, PhAc-ALGP-doxorubicin]
injected dose at which Dox tumor concentration reaches a plateau [1]: 200 µmol/kg | viability at 48 h, 20 µg/mL [2]: 81% | % Metabolites released after 3 h (CD10 10 nM) [3]: 25% and 25 ± 4% | body weight loss (in words) [4, 7]: No body weight loss | pathologic microscopic findings in the heart (in words) [4, 7]: did not induce any pathologic microscopic findings in the heart at any dose levels | Atrophy; myofiber ([4]; mouse, in vivo, iv): 0 | Atrophy; myofiber Grade 1 ([4]; mouse, in vivo, iv): 0 | Atrophy; myofiber Grade 2 ([4]; mouse, in vivo, iv): 0 | Degeneration/necrosis; myocardium ([4]; mouse, in vivo, iv): 0 | Degeneration/necrosis; myocardium Grade 1 ([4]; mouse, in vivo, iv): 0 | Enlarg. Nuclei; myofib. ([4]; mouse, in vivo, iv): 0 | Enlarg. Nuclei; myofib. Grade 1 ([4]; mouse, in vivo, iv): 0 | Infiltration; mix. Cells ([4]; mouse, in vivo, iv): 0 | Infiltration; mix. Cells Grade 1 ([4]; mouse, in vivo, iv): 0 | Thrombus; atrium ([4]; mouse, in vivo, iv): 0 | Thrombus; atrium Grade 1 ([4]; mouse, in vivo, iv): 0 | Vacuolation; myofib. ([4]; mouse, in vivo, iv): 0 | Vacuolation; myofib. Grade 1 ([4]; mouse, in vivo, iv): 0 | Vacuolation; myofib. Grade 2 ([4]; mouse, in vivo, iv): 0 | % Metabolites released after 3 h (TOP 5 nM) [5]: 72% and 72 ± 14% | % Metabolites released after 5 h (LS174T CM20xcc) ([6]; 50 μM compound): 81 ± 31% | % Dox detected after 5 h (LS174T conditioned medium) ([6]; metabolite Dox): 24% | % GP-Dox detected after 5 h (LS174T conditioned medium) ([6]; metabolite GP-Dox): 56%
